Reference: PMC9234707
pKd: −log10 of the molar value.

How the values were obtained:
[1] = target: BMP10 (human (by the printed accession)) (UniProt O95393)
[2] = target: activin B (human (by the printed accession)) (UniProt P09529)
[3] = target: BMPR2 GBD-Fc (WT) (human) (UniProt Q13873); assay: SPR; BIAcore 3000; receptor-Fc (about 500 RU BMPR2-Fc WT or variants, 150 RU ACVR2A-Fc) captured on immobilised anti-human IgG (Fc), CM5 chip; single injections of 80 nM GF, single curve fits, averages of two independent injections; 25 °C; HBS/EPS (0.01 M Hepes, 0.5 M NaCl, 3 mM EDTA, 0.005% Tween 20, pH 7.4) with 0.1% bovine serum albumin; 50 μl/min; 1:1 binding model, KD = kd/ka
[4] = target: BMP10 (human (by the printed accession)) (UniProt O95393); remark: listed apart in the source
[5] = target: ACVR2A GBD-Fc (human) (UniProt P27037); assay: SPR; BIAcore 3000; receptor-Fc captured on immobilised anti-human IgG (Fc), CM5 chip; titration, global fit of 2.5, 5.0, 10.0, 20.0 and 40.0 nM GF injections; 25 °C; HBS/EPS (0.01 M Hepes, 0.5 M NaCl, 3 mM EDTA, 0.005% Tween 20, pH 7.4) with 0.1% bovine serum albumin; 50 μl/min; 1:1 binding model, KD = kd/ka
[6] = target: ACVR2A GBD-Fc (human) (UniProt P27037); assay: SPR; BIAcore 3000; receptor-Fc (about 500 RU BMPR2-Fc WT or variants, 150 RU ACVR2A-Fc) captured on immobilised anti-human IgG (Fc), CM5 chip; single injections of 80 nM GF, single curve fits, averages of two independent injections; 25 °C; HBS/EPS (0.01 M Hepes, 0.5 M NaCl, 3 mM EDTA, 0.005% Tween 20, pH 7.4) with 0.1% bovine serum albumin; 50 μl/min; 1:1 binding model, KD = kd/ka

BMPR2 GBD-Fc (WT) (human), sequence (Q13873 whole entry): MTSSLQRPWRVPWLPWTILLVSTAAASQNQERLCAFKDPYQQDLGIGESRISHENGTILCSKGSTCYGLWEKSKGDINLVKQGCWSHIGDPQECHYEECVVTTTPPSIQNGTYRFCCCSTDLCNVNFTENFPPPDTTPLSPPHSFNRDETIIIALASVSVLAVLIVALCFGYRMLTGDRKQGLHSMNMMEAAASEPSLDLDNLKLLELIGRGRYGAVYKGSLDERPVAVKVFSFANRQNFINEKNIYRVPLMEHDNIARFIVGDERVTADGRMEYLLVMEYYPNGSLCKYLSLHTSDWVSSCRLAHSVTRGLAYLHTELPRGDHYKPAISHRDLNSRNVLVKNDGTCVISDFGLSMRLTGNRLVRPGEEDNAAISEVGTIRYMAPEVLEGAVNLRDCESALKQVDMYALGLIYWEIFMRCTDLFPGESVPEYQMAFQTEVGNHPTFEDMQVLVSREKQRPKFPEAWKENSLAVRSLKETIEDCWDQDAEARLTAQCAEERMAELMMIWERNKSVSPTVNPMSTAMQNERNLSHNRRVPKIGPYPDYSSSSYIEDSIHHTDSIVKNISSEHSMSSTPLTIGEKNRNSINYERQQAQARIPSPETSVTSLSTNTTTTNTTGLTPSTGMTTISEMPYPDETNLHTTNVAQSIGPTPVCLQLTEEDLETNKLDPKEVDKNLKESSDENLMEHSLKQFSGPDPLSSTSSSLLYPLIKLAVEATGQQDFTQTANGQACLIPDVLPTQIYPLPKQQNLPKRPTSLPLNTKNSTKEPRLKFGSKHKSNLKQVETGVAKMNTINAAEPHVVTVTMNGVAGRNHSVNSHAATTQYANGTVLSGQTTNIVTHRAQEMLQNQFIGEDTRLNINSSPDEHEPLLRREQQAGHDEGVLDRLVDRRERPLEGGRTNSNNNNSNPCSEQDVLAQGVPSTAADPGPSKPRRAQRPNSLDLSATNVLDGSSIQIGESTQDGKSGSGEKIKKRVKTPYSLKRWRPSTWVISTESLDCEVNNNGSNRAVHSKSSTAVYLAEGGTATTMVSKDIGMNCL
BMP7, sequence (P18075 293-431): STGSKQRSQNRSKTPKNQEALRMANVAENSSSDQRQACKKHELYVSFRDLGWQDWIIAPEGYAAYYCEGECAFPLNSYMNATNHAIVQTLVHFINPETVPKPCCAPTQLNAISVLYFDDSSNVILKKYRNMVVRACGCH
BMP10 (human (by the printed accession)), sequence (O95393 317-424): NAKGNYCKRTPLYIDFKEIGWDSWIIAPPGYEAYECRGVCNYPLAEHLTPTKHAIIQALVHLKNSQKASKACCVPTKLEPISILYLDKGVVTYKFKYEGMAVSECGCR
ACVR2A GBD-Fc (human), sequence (P27037 whole entry): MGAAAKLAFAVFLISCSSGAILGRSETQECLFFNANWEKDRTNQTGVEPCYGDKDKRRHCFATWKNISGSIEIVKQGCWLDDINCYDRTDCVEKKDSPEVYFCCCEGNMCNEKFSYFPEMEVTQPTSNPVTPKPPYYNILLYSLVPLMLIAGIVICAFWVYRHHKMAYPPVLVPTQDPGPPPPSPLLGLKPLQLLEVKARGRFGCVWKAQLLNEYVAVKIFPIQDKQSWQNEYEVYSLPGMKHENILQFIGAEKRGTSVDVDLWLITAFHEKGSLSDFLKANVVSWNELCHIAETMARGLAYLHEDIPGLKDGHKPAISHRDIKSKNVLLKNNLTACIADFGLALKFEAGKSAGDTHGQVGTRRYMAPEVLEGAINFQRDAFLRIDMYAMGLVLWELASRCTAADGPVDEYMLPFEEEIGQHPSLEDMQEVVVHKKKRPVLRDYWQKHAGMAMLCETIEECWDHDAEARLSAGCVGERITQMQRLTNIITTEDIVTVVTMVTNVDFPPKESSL
activin B (human (by the printed accession)), sequence (P09529 293-407): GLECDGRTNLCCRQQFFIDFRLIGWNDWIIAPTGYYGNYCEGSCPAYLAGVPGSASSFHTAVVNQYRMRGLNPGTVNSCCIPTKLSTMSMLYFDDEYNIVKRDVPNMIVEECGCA

Work on “ACVR2A GBD-Fc (from UniProt P27037 20-120) (Fc fusion)” yielded an IC50 of inhibition of signalling by 5 nM BMP10 in stably transfected HEK293 BRE (SMAD1/5/8) luciferase reporter cells, 0-400 nM receptor-Fc [1] of 187 nM and an IC50 of inhibition of signalling by 5 nM activin B in stably transfected HEK293 SBE (SMAD2/3) luciferase reporter cells, 0-400 nM receptor-Fc [2] of 14 nM.

“BMP7 (from UniProt P18075 293-431) (ligand)” was tested, and the pKd [3] was 7.89, the koff [3] was 0.0071 s⁻¹ and the kon [3] was 520000 M⁻¹ s⁻¹.

“BMPR2 GBD-Fc (WT) (from UniProt Q13873 27-138) (Fc fusion)” showed an IC50 of inhibition of signalling by 5 nM BMP10 in stably transfected HEK293 BRE (SMAD1/5/8) luciferase reporter cells, 0-400 nM receptor-Fc [1] of 35 nM.

“BMPR2-Fc variant G47D (from UniProt Q13873 27-138) (Fc fusion)” showed an IC50 of inhibition of signalling by 5 nM BMP10 in stably transfected HEK293 reporter cells [4] of 10 nM.

“BMPR2-Fc variant Q42R (from UniProt Q13873 27-138) (Fc fusion)” showed an IC50 of inhibition of signalling by 5 nM BMP10 in stably transfected HEK293 reporter cells [4] of 54 nM.

With “BMPR2-Fc variant Q92H (from UniProt Q13873 27-138) (Fc fusion)” the IC50 of inhibition of signalling by 5 nM BMP10 in stably transfected HEK293 reporter cells [4] was 10 nM.

For “BMPR2-Fc variant S107P (from UniProt Q13873 27-138) (Fc fusion)”, the IC50 of inhibition of signalling by 5 nM BMP10 in stably transfected HEK293 reporter cells [4] was 7 nM.

With “activin A (from UniProt P08476 311-426) (ligand)” the pKd [5] was 10.74, the koff [5] was 1.2e-05 s⁻¹ and the kon [5] was 600000 M⁻¹ s⁻¹. For the same substance, the pKd [6] was 10.05, the koff [6] was 0.00019 s⁻¹ and the kon [6] was 2.1e+06 M⁻¹ s⁻¹. It also gave a pKd [3] of 8.02, a koff [3] of 0.0036 s⁻¹ and a kon [3] of 370000 M⁻¹ s⁻¹.
